Laboratory results from patent publication US20150037348A1.

Assays:
[1] = target: recombinant rhesus IL-12 (rhesus monkey) (UniProt P48091); assay: cell-based or functional assay
[2] = target: baboon IL-12 (PBMC supernatant) (baboon); assay: cell-based or functional assay
[3] = target: recombinant human IL-12 (rhIL-12) (human) (UniProt P29459); assay: cell-based or functional assay
[4] = target: cynomolgus IL-12 (PBMC supernatant) (cynomolgus monkey); assay: cell-based or functional assay
[5] = target: recombinant murine IL-12 (mouse) (UniProt P43431); assay: receptor binding assay, 125I-murine IL-12 on 2D6 cells
Sequence of recombinant murine IL-12 (mouse) (P43431 23-215, chain 1 of 2): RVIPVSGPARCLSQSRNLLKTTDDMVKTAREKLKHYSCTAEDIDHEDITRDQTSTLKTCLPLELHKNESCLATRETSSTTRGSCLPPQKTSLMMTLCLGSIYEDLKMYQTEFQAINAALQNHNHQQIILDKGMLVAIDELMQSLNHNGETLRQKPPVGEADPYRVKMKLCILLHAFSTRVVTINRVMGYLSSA
Sequence of recombinant murine IL-12 (mouse) (P43432 23-335, chain 2 of 2, further chain): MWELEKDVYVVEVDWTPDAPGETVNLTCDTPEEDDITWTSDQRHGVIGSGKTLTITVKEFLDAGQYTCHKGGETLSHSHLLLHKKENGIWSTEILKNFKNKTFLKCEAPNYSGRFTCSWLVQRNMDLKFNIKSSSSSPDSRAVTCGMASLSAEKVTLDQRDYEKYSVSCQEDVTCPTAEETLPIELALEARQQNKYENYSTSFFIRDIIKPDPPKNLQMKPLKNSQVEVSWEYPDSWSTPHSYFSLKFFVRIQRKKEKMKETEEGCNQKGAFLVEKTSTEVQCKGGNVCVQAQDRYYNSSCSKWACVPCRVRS

[6] = target: recombinant murine IL-12 (mouse) (UniProt P43431); assay: cell-based or functional assay
[7] = target: recombinant murine IL-12 (mouse) (UniProt P43431); assay: biomolecular interaction assay, C17.15 captured via goat anti-rat IgG, murine IL-12 in solution

Sequence of recombinant rhesus IL-12 (rhesus monkey) (P48091 23-219, chain 1 of 2): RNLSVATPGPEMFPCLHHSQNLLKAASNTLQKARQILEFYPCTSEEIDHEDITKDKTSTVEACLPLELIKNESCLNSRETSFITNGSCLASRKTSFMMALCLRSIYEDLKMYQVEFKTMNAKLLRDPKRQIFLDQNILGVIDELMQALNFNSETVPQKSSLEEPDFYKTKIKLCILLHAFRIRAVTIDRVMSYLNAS
Sequence of recombinant rhesus IL-12 (rhesus monkey) (P48095 23-328, chain 2 of 2, further chain): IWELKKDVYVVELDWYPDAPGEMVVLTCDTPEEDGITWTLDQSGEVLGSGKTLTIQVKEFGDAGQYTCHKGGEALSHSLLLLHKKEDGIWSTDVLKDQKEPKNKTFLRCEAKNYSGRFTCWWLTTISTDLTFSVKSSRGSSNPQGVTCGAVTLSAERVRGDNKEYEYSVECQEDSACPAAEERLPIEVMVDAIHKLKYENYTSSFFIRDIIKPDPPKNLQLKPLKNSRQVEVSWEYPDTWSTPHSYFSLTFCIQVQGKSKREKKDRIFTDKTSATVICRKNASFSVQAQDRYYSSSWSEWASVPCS
Sequence of recombinant human IL-12 (rhIL-12) (human) (P29459 23-219, chain 1 of 2): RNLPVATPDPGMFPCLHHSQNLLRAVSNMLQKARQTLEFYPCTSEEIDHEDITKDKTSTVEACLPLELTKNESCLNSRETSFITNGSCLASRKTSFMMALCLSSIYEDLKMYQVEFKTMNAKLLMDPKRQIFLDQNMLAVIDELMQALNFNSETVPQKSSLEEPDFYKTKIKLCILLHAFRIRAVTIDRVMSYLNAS
Sequence of recombinant human IL-12 (rhIL-12) (human) (P29460 23-328, chain 2 of 2, further chain): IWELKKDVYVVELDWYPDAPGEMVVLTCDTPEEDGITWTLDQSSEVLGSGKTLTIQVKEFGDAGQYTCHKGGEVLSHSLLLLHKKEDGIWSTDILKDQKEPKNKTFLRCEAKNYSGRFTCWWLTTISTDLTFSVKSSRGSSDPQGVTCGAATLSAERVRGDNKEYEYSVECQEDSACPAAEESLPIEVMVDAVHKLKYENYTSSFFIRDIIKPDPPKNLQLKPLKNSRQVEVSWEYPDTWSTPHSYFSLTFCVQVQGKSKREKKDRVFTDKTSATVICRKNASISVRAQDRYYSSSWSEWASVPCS

Row | IC50 (M), bioassay, Rhesus IL-12 Purified [1] [M] | IC50 (M), bioassay, Baboon IL-12 PBMC sup [2] [M] | IC50 (M), bioassay, Human IL-12 Purified [3] [M] | IC50 (M), bioassay, Cyno IL-12 PBMC sup [4] [M] | IC50 [5] [nM] | IC50 (M), bioassay, Mouse IL-12 Purified [6] [M] | PHA blast IC50 [6] [pM] | Kd [7] [nM] | koff [7] [s⁻¹] | kon [7] [M⁻¹ s⁻¹] | Substance
1 | 1e-10 | 2e-10 | 5e-11 | 1.2e-10 |  |  |  |  |  |  | C8.6.2 (antibody)
2 |  |  |  |  | 0.15 | 3e-11 | 14 | 0.48 | 0.000184 | 380000 | C17.15 (antibody)
